US20240425569A1 (VISTERRA, published 2024)
Changes are numbered by the printed parent chain. Numbers in names are those of the source. Like-named read-outs stand apart in the source and are kept apart here.

Key:
[1] = biological target: T1, EDIII-DV1 (E protein domain III of dengue virus serotype DV-1) (dengue virus serotype DV-1, UniProt P17763 573-680)
T1 construct: also called DENV-1; EDIII of DV-1
T1 chain: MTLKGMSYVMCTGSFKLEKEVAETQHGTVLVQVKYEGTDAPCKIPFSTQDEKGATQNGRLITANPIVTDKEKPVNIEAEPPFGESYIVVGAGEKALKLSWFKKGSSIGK

[2] = biological target: T2, EDIII-DV3 (E protein domain III of dengue virus serotype DV-3) (dengue virus serotype DV-3, UniProt P27915 571-678)
T2 construct: also called DENV-3; EDIII of DV-3

[3] = biological target: dengue virus serotype DV-4 (live virus, representative strain not named; E protein) (dengue virus serotype DV-4); assay: cell-based or functional assay
[4] = biological target: T3, EDIII-DV4 (E protein domain III of dengue virus serotype DV-4) (dengue virus serotype DV-4, UniProt P09866 572-679); assay: affinity for EDIII, table of FIG. 4; method not stated
T3 construct: also called DENV-4

[5] = biological target: T4, EDIII-DV2 (E protein domain III of dengue virus serotype DV-2) (dengue virus serotype DV-2, UniProt P14337 573-677)
T4 construct: also called DENV-2; EDIII of DV-2

[6] = biological target: T3, EDIII-DV4 (E protein domain III of …)
[7] = biological target: T3, EDIII-DV4 (E protein domain III of …); remark: listed apart in the source
[8] = biological target: T3, EDIII-DV4 (E protein domain III of …); assay: affinity for EDIII-DV-4, tables of FIG. 5; method not stated
[9] = biological target: ED3-DV4/H241/Phil56 (EDIII of DENV-4 strain H241) (dengue virus serotype DENV-4, strain …, UniProt Q58HT7 572-679); assay: Kd table, method not stated; Ag DENV-4 Phil
[10] = biological target: T5, Singapore/2009 (serotype III EDIII)
T5 construct: also called ED3-DV3/Sing09; DENV-3 Sing
T5 E protein domain III (EDIII): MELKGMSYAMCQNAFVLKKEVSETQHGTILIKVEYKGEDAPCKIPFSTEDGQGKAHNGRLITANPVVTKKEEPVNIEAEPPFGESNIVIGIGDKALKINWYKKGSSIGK

[11] = biological target: T6, New Guinea/1944 (NGC)* (serotype II EDIII) (Dengue virus 2); assay: Kd table, method not stated; Ag DENV-2 NGC
T6 construct: isolated EDIII protein; also called EDIII of DENV-2 NGC

[12] = biological target: T3, EDIII-DV4 (E protein domain III of …); remark: listed apart in the source
[13] = biological target: T7, Mexico/1977 (BC287/97)* (serotype IV EDIII) (Dengue virus 4); assay: Kd table, method not stated; Ag DENV-4 BC2
T7 construct: isolated EDIII protein; also called EDIII of DENV-4 Mexico/1997 (BC287/97); DENV-4 BC2

[14] = biological target: T1, EDIII-DV1 (E protein domain III of …); assay: SPR (FIG. 9), by context
[15] = biological target: T4, EDIII-DV2 (E protein domain III of …); assay: competition ELISA
[16] = biological target: T1, EDIII-DV1 (E protein domain III of …); assay: competition ELISA
[17] = biological target: T2, EDIII-DV3 (E protein domain III of …); assay: competition ELISA
[18] = biological target: T8, Philippines/1956 (H87)* (serotype III EDIII) (Dengue virus 3)
T8 construct: isolated EDIII protein

[19] = biological target: T3, EDIII-DV4 (E protein domain III of …); assay: competition ELISA; column 'EDIII-DV4'
[20] = biological target: T9, Singapore/2010 (serotype IV EDIII); assay: Kd table, method not stated; Ag DENV-4 Sing
T9 construct: also called ED3-DV4/Sing10; DENV-4 Sing
T9 E protein domain III (EDIII): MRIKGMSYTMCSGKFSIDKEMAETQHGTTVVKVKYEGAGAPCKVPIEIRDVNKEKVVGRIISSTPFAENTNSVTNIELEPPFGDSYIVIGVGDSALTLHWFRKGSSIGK

[21] = biological target: T3, EDIII-DV4 (E protein domain III of …); assay: competition ELISA; column 'EDIII-DV4 [1/7]'
[22] = biological target: T10, Peru/1995 (serotype II EDIII); assay: Kd table, method not stated; Ag DENV-2 Peru
T10 construct: also called ED3-DV2/Peru95; DENV-2 Peru

[23] = biological target: T11, New Caledonia/2009 (serotype IV EDIII); assay: Kd table, method not stated; Ag DENV-4 NC
T11 construct: also called ED3-DV4/NewCal09; DENV-4 NC
T11 E protein domain III (EDIII): T9 E protein domain III (EDIII) with V44I, T74I

[24] = biological target: T12, Nicaragua/2010 (serotype III EDIII)
T12 construct: also called ED3-DV3/Nicaragua10; DENV-3 Nic
T12 E protein domain III (EDIII): T5 E protein domain III (EDIII) with Q12T, A14T, A40V, K94N

[25] = biological target: T3, EDIII-DV4 (E protein domain III of …); remark: listed apart in the source
[26] = biological target: T2, EDIII-DV3 (E protein domain III of …); remark: listed apart in the source
[27] = biological target: T13, Singapore/2008 (serotype II EDIII); assay: Kd table, method not stated; Ag DENV-2 Sing
T13 construct: also called ED3-DV2/Sing08; DENV-2 Sing

[28] = biological target: T3, EDIII-DV4 (E protein domain III of …); remark: listed apart in the source

B1: antibody B11 (antibody, V domains shown)
VH: VKLLEQSGAELVKPGASVRLSCTAGFNIKDTYMSWVKQRPEQGLEWIGRIDPENGDTKYDPKFQGKATITADTSSNTAYLHLSSLTSGDTAVYYCSRGWEGFAYWGQGTLVTVSA
VL: ELVMTQTPASLAVSLGQRATISCRASENVDKYGNSFMHWYQQKAGQPPKLLIYRASELQWGIPARFSGSGSRTDFTLTINPVEADDVATYFCQRSNEVPWTFGGGTKLEIK
Kd [1]: < 0.1 nM
Kd [2]: 2.98 nM
IC50, focus reduction neutralization test (FRNT), DV-4 [3]: 0.5 to 1.4 µg/mL

B2: antibody B48+A98V (antibody, V domains shown)
VH: QVQLVQSGAEVKKPGASVKVSCKAGFNIKDTYMSWVRQAPEQGLEWMGRIDPENGDTKYDPKLQGRVTMTADTSTNTAYMELRSLRSDDTAVYYCVRGWEGFAYWGQGTLVTVSS
VL: DIVMTQSPASLAVSLGERATISCRASENVDKYGNSFMHWYQQKPGQPPKLLIYRASELQWGVPDRFSGSGSGTDFTLTISSLQAEDVAVYYCQRSNEVPWTFGQGTKLEIK
fold improvement in binding relative to antibody B48 [4]: ~5 fold
Kd [5]: < 0.1 nM
Kd [6]: 9.26 nM
Kd [1]: < 0.1 nM
Kd [2]: 5.06 nM

B3: antibody D48 (antibody, V domains shown)
VH: VKLLEQSGAEVKKPGASVKVSCKASGFNIKDVYMSWVRQAPEQGLEWMGRIDPENGDTKYDPKLQGRVTMTADTSTNTAYMELRSLRSDDTAVYYCARGWEGFAYWGQGTLVTVSS
VL: B2 VL
Kd [7]: 7.49 nM
fold improvement in affinity relative to an antibody with a fully humanized N-terminus [8]: ~2 fold

B4: antibody C88 (antibody, V domains shown)
VH: B3 VH with V1Q, K2V, L3Q, E5V
VL: B2 VL
Kd [9]: 234 nM
Kd [10]: 1 nM
Kd [11]: < 0.1 nM
Kd [12]: 13 nM
Kd [13]: 10.6 nM
fold greater affinity than C98 [14]: ~20 fold
Kd [15]: < 0.1 nM
Kd [16]: < 0.1 nM
Kd [17]: 1.06 nM
Kd [18]: 1.5 nM
Kd [7]: 13 nM
Kd [19]: 15.4 nM
Kd [20]: 15 nM
Kd [21]: 13 nM
Kd [22]: 0.38 nM
Kd [23]: 11.3 nM
Kd [24]: 3.2 nM
Kd [25]: 23.8 nM
Kd [26]: 0.97 nM
Kd [27]: < 0.1 nM

B5: antibody D98 (antibody, V domains shown)
VH: B3 VH with V1Q, K2V, L3Q, E5V, G26A
VL: B2 VL
Kd [28]: 16.9 nM
